Series [1] deals with the molecule itself. The series can be described thus: non-reducing SDS-PAGE and immunoblot or Coomassie staining. Background: Immunoblotting shows a protein as a band on a membrane.
Series [2] concerns the molecule itself. The series is described as above. The source holds these as a separate data set.

Substitutions are numbered along the chain they refer to. Names may count otherwise. Read-outs that look alike come from different tables or passages of the source.

B1: GST-tagged RET CLD4-CRD (amino acids 382–635) D567N (domain or fragment, human, UniProt P07949 382-635, looked up)
chain: QGPGAGVLLLHFNVSVLPVSLHLPSTYSLSVSRRARRFAQIGKVCVENCQAFSGINVQYKLHSSGANCSTLGVVTSAEDTSGILFVNDTKALRRPKCAELHYMVVATDQQTSRQAQAQLLVTVEGSYVAEEAGCPLSCAVSKRRLECEECGGLGSPTGRCEWRQGDGKGITRNFSTCSPSTKTCPNGHCDVVETQDINICPQDCLRGSIVGGHEPGEPRGIKAGYGTCNCFPEEEKCFCEPEDIQDPLCDELCR
Regarding B1, the binding result in series [1] is on record as “binds”.

B2: GST-tagged RET CLD4-CRD (amino acids 382–635), wild type (domain or fragment, human, UniProt P07949 382-635, looked up)
chain: B1 chain with N186D
Take B2: the binding result in series [2] was “binds”.
